Reference: the Human Domainome abundance scans (Beltran et al. 2025)
± gives the uncertainty stated by the source.

B1: Myocardin-related transcription factor A, residues 341 to 383; numbered along this chain, Q969V6 (parent)
chain: GALPANLDDMKVAELKQELKLRSLPVSGTKTELIERLRAYQDQ
B2: Gamma-crystallin D, residues 90 to 170; numbered along this chain, P07320 (parent)
chain: IRLYEREDYRGQMIEFTEDCSCLQDRFRFNEIHSLNVLEGSWVLYELSNYRGRQYLLMPGDYRRYQDWGATNARVGSLRRV

Variants of: B1
Test: abundance fitness (aPCA) (normalised: wild type 0, dead -1); higher = more abundant; growth selection in yeast, the domain comes from the species named
Conditions: Homo sapiens

Abundance fitness, by site and new letter:
L19: E -0.55 ± 0.1, Q -0.408 ± 0.09, D -0.621 ± 0.18, H -0.852 ± 0.28, C -0.083 ± 0.09, S -0.237 ± 0.2, A -0.048 ± 0.087
M10: A -0.104 ± 0.082, V -0.872 ± 0.074
D9: V 0.153 ± 0.079, S 0.159 ± 0.065, L -0.026 ± 0.07
K30: H -0.217 ± 0.086, D -0.478 ± 0.084, S -0.231 ± 0.08, M -0.332 ± 0.21, Q -0.092 ± 0.098
V12: W -0.374 ± 0.099, F -0.037 ± 0.11, C -0.212 ± 0.13, E 0.098 ± 0.081
K11: T -0.161 ± 0.077
Q41: M 0.107 ± 0.078, Y -0.307 ± 0.28, I -0.021 ± 0.21
L24: A -0.27 ± 0.088, W -0.751 ± 0.13
T29: D -0.147 ± 0.087, Y -0.44 ± 0.21
D8: S -0.124 ± 0.12, V 0.048 ± 0.075
A5: R 0.064 ± 0.068
D42: R -0.234 ± 0.076, N 0.186 ± 0.41, Q -0.087 ± 0.23
E35: S 0.109 ± 0.091, Y 0.166 ± 0.18
V26: G -0.038 ± 0.12, K -0.195 ± 0.14, W -0.538 ± 0.24
T31: E 0.085 ± 0.07, L -0.145 ± 0.08
Q17: Y -0.263 ± 0.12, T -0.134 ± 0.078, A 0.015 ± 0.077, F -0.234 ± 0.085
L15: F -0.466 ± 0.23, T -0.403 ± 0.13, Q -0.662 ± 0.12
R22: H -0.232 ± 0.096
L21: N -0.08 ± 0.45
K16: Q 0.186 ± 0.18, S 0.006 ± 0.14, P -0.587 ± 0.1, T -0.036 ± 0.077, N -0.384 ± 0.11, D -0.714 ± 0.25
S23: C 0.052 ± 0.11, F -0.205 ± 0.14, H 0.176 ± 0.11
A2: G 0.035 ± 0.061, E 0.136 ± 0.34, F 0.024 ± 0.15, W -0.145 ± 0.1
R36: S -0.291 ± 0.075, M -0.395 ± 0.21
G1: C -0.605 ± 0.17
L37: M -0.165 ± 0.081, E -0.504 ± 0.086, V -0.3 ± 0.092
E32: V -0.093 ± 0.069, W -1.15 ± 0.14, T -0.143 ± 0.12
Y40: F 0.12 ± 0.062, S 0.246 ± 0.074, H 0.228 ± 0.15, Q -0.189 ± 0.23, V 0.179 ± 0.062
G28: H -1.18 ± 0.19, M -0.957 ± 0.12, K -0.862 ± 0.22
P4: M 0.196 ± 0.15, F -0.263 ± 0.24
R38: E 0.074 ± 0.089, G -0.047 ± 0.063, T -0.233 ± 0.077, M -0.052 ± 0.24
P25: L -0.542 ± 0.074, G -0.186 ± 0.059, R -0.304 ± 0.069, F -0.963 ± 0.14, A -0.263 ± 0.069
E14: S -0.056 ± 0.072, K -0.215 ± 0.098, R -0.169 ± 0.083
I34: M -0.144 ± 0.089
L7: G -0.305 ± 0.064, E -0.924 ± 0.096, V -0.199 ± 0.077
S27: A 0.181 ± 0.14, Y -0.136 ± 0.21, P -0.08 ± 0.19
N6: G 0.044 ± 0.074
L3: A -0.431 ± 0.061, K -0.171 ± 0.083

Variants of: B2
Test: as above
Conditions: Homo sapiens

Abundance fitness of substitutions, site by site:
T17: D -0.012 ± 0.14, A -0.177 ± 0.071, E -0.089 ± 0.095, C 0.007 ± 0.14, F 0.08 ± 0.14
E15: Y -0.135 ± 0.2, M -0.013 ± 0.092, A -0.065 ± 0.11, S -0.11 ± 0.086, L -0.032 ± 0.075, I -0.034 ± 0.23, F 0.015 ± 0.19, T -0.027 ± 0.13, D -0.166 ± 0.14, R -0.084 ± 0.059, V -0.118 ± 0.076, K 0.204 ± 0.17, G -0.08 ± 0.061, W -0.093 ± 0.074, N 0.206 ± 0.29, P 0.038 ± 0.11, C 0.008 ± 0.18
M13: F 0.009 ± 0.17, V 0.04 ± 0.08, D 0.034 ± 0.14, H 0.001 ± 0.17, S 0.061 ± 0.14, T -0.122 ± 0.094, G 0.017 ± 0.051, R -0.075 ± 0.073, Y -0.524 ± 0.27, E -0.056 ± 0.16, A 0.08 ± 0.1, C -0.176 ± 0.13, N -0.042 ± 0.18, Q -0.115 ± 0.12, L 0.002 ± 0.081, I -0.021 ± 0.15, W -0.127 ± 0.099
Y9: F 0.104 ± 0.19, T 0.179 ± 0.12, M 0.064 ± 0.18, K 0.001 ± 0.19, G 0.06 ± 0.053, H 0.19 ± 0.36, E 0.082 ± 0.073, C 0.194 ± 0.13, Q 0.07 ± 0.11, I 0.112 ± 0.2, N 0.217 ± 0.14, P -0.529 ± 0.12, W 0.036 ± 0.066, V -0.396 ± 0.073, R 0.204 ± 0.058, D -0.076 ± 0.14, S 0.175 ± 0.078
I14: M 0.086 ± 0.12, Y -0.018 ± 0.16, V -0.001 ± 0.09, W -0.09 ± 0.11, A -0.401 ± 0.045, C -0.004 ± 0.1, S 0.107 ± 0.1, D 0.08 ± 0.18, K -0.092 ± 0.13, P -0.825 ± 0.18, G -0.092 ± 0.069, T -0.018 ± 0.11, F 0.019 ± 0.26, N 0.056 ± 0.21, L -0.106 ± 0.087
R6: H -0.124 ± 0.27, Q -0.066 ± 0.14, A 0.044 ± 0.094, L 0.012 ± 0.094, V -0.035 ± 0.1, K -0.027 ± 0.17, P -1.02 ± 0.2, Y -0.092 ± 0.26, I -0.047 ± 0.21, G -0.011 ± 0.07, S -0.01 ± 0.087, N 0.153 ± 0.24, D -0.172 ± 0.23, C 0.069 ± 0.096, E -0.018 ± 0.13, T 0.005 ± 0.11, M -0.042 ± 0.18, F -0.262 ± 0.26
R2: V -0.146 ± 0.3, L -0.162 ± 0.33, T -0.105 ± 0.19
E5: D -0.013 ± 0.12, A -0.086 ± 0.09, N -0.096 ± 0.31, F 0.002 ± 0.13, S 0.046 ± 0.071, K 0.112 ± 0.088, H -0.176 ± 0.3, V 0.053 ± 0.084, T -0.146 ± 0.12, M 0.051 ± 0.17, R 0.023 ± 0.068, G -0.025 ± 0.07, Q -0.013 ± 0.058, W 0.154 ± 0.1, C -0.179 ± 0.22, P 0.027 ± 0.099, Y 0.167 ± 0.19, I 0.079 ± 0.21
L3: T -0.239 ± 0.31, P -1 ± 0.46, F -0.012 ± 0.43, V 0.076 ± 0.14, R -1.02 ± 0.38, G -0.131 ± 0.18, S 0.122 ± 0.21
D8: W -0.153 ± 0.098, K 0.111 ± 0.14, L 0.025 ± 0.092, H -0.086 ± 0.17, M -0.006 ± 0.13, I -0.152 ± 0.23, T -0.016 ± 0.096, E 0.015 ± 0.12, Q 0.097 ± 0.16, P 0.026 ± 0.12, V -0.049 ± 0.09, F 0.085 ± 0.2, R 0.025 ± 0.072, S -0.03 ± 0.075, A -0.079 ± 0.095, C 0.05 ± 0.13, N -0.342 ± 0.18, G -0.004 ± 0.074
R10: P -1.07 ± 0.19, T -0.034 ± 0.1, K 0.226 ± 0.13, I 0.074 ± 0.21, Y -0.087 ± 0.18, G -0.004 ± 0.064, V -0.005 ± 0.069, N 0.077 ± 0.24, D -0.118 ± 0.14, A -0.093 ± 0.057, E 0.059 ± 0.14, F 0.025 ± 0.098, W -0.027 ± 0.1, Q -0.069 ± 0.14, C 0.046 ± 0.12, S -0.138 ± 0.077, L -0.064 ± 0.096, M -0.026 ± 0.12
E7: S 0.069 ± 0.14, G -0.095 ± 0.083, Y -0.498 ± 0.43, Q -0.016 ± 0.13, R -0.043 ± 0.065, W 0.045 ± 0.097, V -0.04 ± 0.1, M -0.029 ± 0.17, K 0.103 ± 0.22, I -0.107 ± 0.34, L -0.031 ± 0.12, F -0.148 ± 0.19, A 0.001 ± 0.083, C -0.333 ± 0.16
Q12: P 0 ± 0.073, G 0.04 ± 0.066, L -0.173 ± 0.075, I -0.061 ± 0.17, H 0.021 ± 0.16, C -0.352 ± 0.24, F -0.192 ± 0.17, N 0.102 ± 0.19, K 0.052 ± 0.23, Y 0.007 ± 0.19, V 0.1 ± 0.089, D -0.019 ± 0.14, E -0.105 ± 0.11, W -0.176 ± 0.12, T -0.041 ± 0.096, S -0.008 ± 0.079, A -0.055 ± 0.076, M 0.062 ± 0.14
F16: Q 0.033 ± 0.13, D -0.163 ± 0.11, G 0.035 ± 0.052, K -0.118 ± 0.1, H 0.052 ± 0.31, W 0.143 ± 0.09, R 0.082 ± 0.063, T -0.089 ± 0.12, I -0.077 ± 0.26, S 0.035 ± 0.068, V 0.034 ± 0.071, Y -0.606 ± 0.42, N 0.095 ± 0.18, E -0.018 ± 0.095, A -0.1 ± 0.081, L 0.08 ± 0.078, M -0.115 ± 0.15, P 0.109 ± 0.09, C -0.029 ± 0.12
I1: L -0.1 ± 0.34, W -1 ± 0.34, G -0.344 ± 0.18, N 0.12 ± 0.31, F -0.462 ± 0.45, V -0.094 ± 0.27, A 0.139 ± 0.24, T -0.37 ± 0.22, M -0.021 ± 0.14
Y4: N 0.02 ± 0.11, V -0.82 ± 0.16, W -0.192 ± 0.15, R -0.22 ± 0.11, G -0.683 ± 0.21, D 0.074 ± 0.32, C 0.222 ± 0.35, E -0.881 ± 0.3, L -0.646 ± 0.17, H 0.219 ± 0.44, A -0.472 ± 0.13
G11: W -1.01 ± 0.18, A 0.035 ± 0.073, S -0.1 ± 0.083, N -0.094 ± 0.16, P -0.521 ± 0.12
